Key:
[1] = target: T1, Nrf2 long fragment, wild type;MafG (EMSA construct) (Homo sapiens;Homo sapiens, UniProt Q16236;O15525 ;, |); test: EMSA; Nrf2:MafG 3:1; MafG concentration taken as heterodimer; 16 h; EMSA: 20 mM Tris-HCl pH 7.2, 150 mM KCl, 10 mM DTT, 8 mg/ml BSA, 0.005% Tween 20, 50 ng/ml poly(dI-dC), 2.5% Ficoll; probe ~1.6 pM; 16 h (30 min for Jun-Fos); competitive assay at 4 C; gel at 4 C; settings: protein: recombinant;recombinant; tags: N-terminal His6 (not removed);N-terminal His6, removed by HRV 3C (GPHM left); copies: 1;1; label: 32P 5' end; text says 30 bp)
MafG (EMSA construct) = MafG (EMSA construct) (Homo sapiens, UniProt O15525); test: EMSA; homodimer; 16 h; EMSA: 20 mM Tris-HCl pH 7.2, 150 mM KCl, 10 mM DTT, 8 mg/ml BSA, 0.005% Tween 20, 50 ng/ml poly(dI-dC), 2.5% Ficoll; probe ~1.6 pM; 16 h (30 min for Jun-Fos); competitive assay at 4 C; gel at 4 C; settings: protein: recombinant; tags: N-terminal His6, removed by HRV 3C (GPHM left); chain copies: 2; label: 32P 5' end; text says 30 bp)
[2] = target: c-Jun fragment;c-Fos fragment (Homo sapiens;Homo sapiens, UniProt P05412;P01100 ;, |); test: EMSA; heterodimer; 30 min; EMSA: 20 mM Tris-HCl pH 7.2, 150 mM KCl, 10 mM DTT, 8 mg/ml BSA, 0.005% Tween 20, 50 ng/ml poly(dI-dC), 2.5% Ficoll; probe ~1.6 pM; 16 h (30 min for Jun-Fos); competitive assay at 4 C; gel at 4 C; settings: protein: recombinant;recombinant; tags: N-terminal His6;N-terminal His6; copies: 1;1; label: 32P 5' end; text says 30 bp)
Chain of c-Jun fragment;c-Fos fragment (P05412 other isoform, or with tags, fused parts or gaps |, chain 1 of 2): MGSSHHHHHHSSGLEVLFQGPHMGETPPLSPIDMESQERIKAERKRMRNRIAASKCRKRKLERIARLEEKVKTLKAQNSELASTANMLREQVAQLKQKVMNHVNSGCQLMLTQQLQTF
Chain of c-Jun fragment;c-Fos fragment (P01100 other isoform, or with tags, fused parts or gaps |, chain 2 of 2): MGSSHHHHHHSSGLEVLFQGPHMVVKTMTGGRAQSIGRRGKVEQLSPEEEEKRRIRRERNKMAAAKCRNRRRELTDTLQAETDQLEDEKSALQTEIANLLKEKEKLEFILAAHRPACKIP

[3] = target: T1, Nrf2 long fragment, wild type;MafG …; test: EMSA (competitive, vs MafG homodimer); EC50 of Nrf2 at 1 nM MafG; 4 C, 16 h; EMSA: 20 mM Tris-HCl pH 7.2, 150 mM KCl, 10 mM DTT, 8 mg/ml BSA, 0.005% Tween 20, 50 ng/ml poly(dI-dC), 2.5% Ficoll; probe ~1.6 pM; 16 h (30 min for Jun-Fos); competitive assay at 4 C; gel at 4 C; settings: protein: recombinant;recombinant; tags: N-terminal His6 (not removed);N-terminal His6, removed by HRV 3C (GPHM left); copies: 1;1; label: 32P 5' end; text says 30 bp)
[4] = target: T2, Nrf2 DNA-binding domain (CNC-bZIP);MafG (crystal construct) (Homo sapiens;Homo sapiens, UniProt Q16236;O15525 ;, |); test: X-ray crystallography; 2.6 A; EMSA: 20 mM Tris-HCl pH 7.2, 150 mM KCl, 10 mM DTT, 8 mg/ml BSA, 0.005% Tween 20, 50 ng/ml poly(dI-dC), 2.5% Ficoll; probe ~1.6 pM; 16 h (30 min for Jun-Fos); competitive assay at 4 C; gel at 4 C; settings: protein: recombinant;recombinant; tags: N-terminal His6, removed by HRV 3C (GPHM left);none; copies: 1;1; 1-nt 5' overhang on each strand (15 bp)
[5] = target: T3, human c-Fos fragment (residues 111–207) (human, UniProt P01100 111-207); test: native gel or EMSA; EMSA to determine KD for DNA: dimers mixed with 32P-end labeled CsMBE DNA probe (about 1.6 pM) in 20 mM Tris–HCl pH 7.2, 150 mM KCl, 10 mM DTT, BSA, Tween 20, Poly(dI-dC), Ficol; 30 min (Jun–Fos) or 16 h (Nrf2–MafG, MafG homodimer); Nrf2 and MafG mixed at 3:1; complexes seen on DNA; settings: both partners purified
T3 construct: human c-Fos, residues 111-207; The tag is cleavable with HRV 3C protease, but no removal is described; source: E. coli BL21(DE3)-RIL, precipitate solubilized in 6 M guanidine-HCl, purified (HisTrap HP), dialyzed
T3 sequence (P01100 111-207): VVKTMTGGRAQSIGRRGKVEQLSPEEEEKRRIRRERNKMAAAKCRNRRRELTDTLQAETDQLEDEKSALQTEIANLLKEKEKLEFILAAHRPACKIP

[6] = target: T2, Nrf2 DNA-binding domain (CNC-bZIP);MafG …; test: X-ray crystallography; 2.3 A; EMSA: 20 mM Tris-HCl pH 7.2, 150 mM KCl, 10 mM DTT, 8 mg/ml BSA, 0.005% Tween 20, 50 ng/ml poly(dI-dC), 2.5% Ficoll; probe ~1.6 pM; 16 h (30 min for Jun-Fos); competitive assay at 4 C; gel at 4 C; settings: protein: recombinant;recombinant; tags: N-terminal His6, removed by HRV 3C (GPHM left);none; copies: 1;1; 1-nt 5' overhang on each strand (15 bp)
[7] = target: T4, human Nrf2 fragment (residues 452–560) (human, UniProt Q16236 452-560); test: crystal structure; Nrf2, MafG and DNA (CsMBE1 or CsMBE2) mixed at a molar ratio of 1:1:1, 10 mg/ml in 33 mM DTT; two Nrf2–MafG–DNA complexes in the asymmetric unit; settings: both partners purified
T4 construct: His6 tag removed with HRV 3C protease; also called NFE2L2; Nuclear factor erythroid 2-like factor; source: E. coli BL21 (DE3), purified (phosphocellulose P11, HisTrap HP, HiTrap SP, Superdex 75); not shown: His6, N-terminal, cleaved
T4 sequence (looked up): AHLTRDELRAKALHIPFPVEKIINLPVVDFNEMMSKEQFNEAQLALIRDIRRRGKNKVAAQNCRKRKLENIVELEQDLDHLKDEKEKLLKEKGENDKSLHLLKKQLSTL

[8] = target: the molecule itself; test: native gel or EMSA; EMSA to determine KD for DNA: dimers mixed with 32P-end labeled CsMBE DNA probe (about 1.6 pM) in 20 mM Tris–HCl pH 7.2, 150 mM KCl, 10 mM DTT, BSA, Tween 20, Poly(dI-dC), Ficol; 30 min (Jun–Fos) or 16 h (Nrf2–MafG, MafG homodimer); Nrf2 and MafG mixed at 3:1; complexes seen on DNA
[9] = target: T5, longer human Nrf2 fragment (residues 182–560) (human, UniProt Q16236 182-560); test: as above; settings: both partners purified
T5 construct: human Nrf2 (NFE2L2), residues 182-560; Used for EMSA; also called Nrf2 (182–560); wild-type Nrf2; not shown: His6, N-terminal, kept
T5 sequence (looked up): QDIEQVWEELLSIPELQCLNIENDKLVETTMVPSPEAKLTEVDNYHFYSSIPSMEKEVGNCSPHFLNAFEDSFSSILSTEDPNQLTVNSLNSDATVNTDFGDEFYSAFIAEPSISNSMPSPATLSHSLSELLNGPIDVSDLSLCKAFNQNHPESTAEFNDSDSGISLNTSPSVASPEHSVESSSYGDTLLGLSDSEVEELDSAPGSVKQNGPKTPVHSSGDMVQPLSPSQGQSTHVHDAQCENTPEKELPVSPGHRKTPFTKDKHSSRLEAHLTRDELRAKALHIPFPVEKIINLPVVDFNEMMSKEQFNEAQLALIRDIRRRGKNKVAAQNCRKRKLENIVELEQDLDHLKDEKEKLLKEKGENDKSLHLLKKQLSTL

B1: EMSA CsMBE probe (dsDNA)
DNA 1: CCGCAGTCACAGTGACTCAGCAGAATCTGA
DNA 2: CTCAGATTCTGCTGAGTCACTGTGACTGCG
Kd [1]: 0.53 nM
Kd (MafG (EMSA construct)): 0.69 nM
Kd [2]: 129 nM
apparent K (half saturation) [3]: 2.1 nM

B2: CsMBE2 (dsDNA)
DNA 1: CACAGTGACTCAGCAG
DNA 2: GCTGCTGAGTCACTGT
binding result [4]: binds

B3: human c-Jun fragment (residues 237–331) (domain or fragment, UniProt P05412 237-331, looked up)
chain: GETPPLSPIDMESQERIKAERKRMRNRIAASKCRKRKLERIARLEEKVKTLKAQNSELASTANMLREQVAQLKQKVMNHVNSGCQLMLTQQLQTF
notes: human c-Jun, residues 237-331; source: E. coli, expressed and purified similarly to the c-Fos fragment
binding result [5]: binds

B4: CsMBE1 (dsDNA)
DNA 1: CATGATGAGTCAGCAA
DNA 2: GTTGCTGACTCATCAT
binding result [6]: binds

B5: human MafG (residues 21–123, without any tag) (domain or fragment, UniProt O15525 21-123, looked up)
chain: GTSLTDEELVTMSVRELNQHLRGLSKEEIVQLKQRRRTLKNRGYAASCRVKRVTQKEELEKQKAELQQEVEKLASENASMKLELDALRSKYEALQTFARTVAR
notes: human MafG, residues 21-123: EHR, basic region and leucine zipper; Construct used for crystallization; source: E. coli BL21 (DE3), pAR2156-MafG, plating method, purified (HiTrap Heparin, Superdex 75)
binding result [7]: binds

B6: human MafG fragment (residues 21–123), His6 tag removed (domain or fragment, UniProt O15525 21-123, looked up)
chain: GTSLTDEELVTMSVRELNQHLRGLSKEEIVQLKQRRRTLKNRGYAASCRVKRVTQKEELEKQKAELQQEVEKLASENASMKLELDALRSKYEALQTFARTVAR
notes: human MafG, residues 21-123; Construct used for EMSA; also called MafG (21–123); source: E. coli BL21(DE3)-RIL, purified (phosphocellulose P11, HisTrap HP, Superdex 75); not shown: His6, N-terminal, cleaved
binding result [8]: binds
binding result [9]: binds

Reference: publication PMC9756947, “Structural basis of transcription regulation by CNC family transcription factor, Nrf2” (Nucleic Acids Research, 2022)
